Reference: patent US20190218253A1 (NATIONAL UNIVERSITY OF SINGAPORE, published 2019)
Square brackets hold non-standard residues; d marks the D form.

What was measured:
[1] = biological target: T1, retinoblastoma binding protein 4 (RBBp4) (UniProt Q09028 1-425); assay: SPR (Biacore T200), RBBp4 amine-coupled to CM5 chip, peptide as analyte; surface plasmon resonance
T1 construct: Bought protein; Crystal structure numbering runs at least over residues 33-404; also called RbAp48
Procedure: SPR studies were performed using a Biacore T200 biosensor (GE Healthsciences). ˜12,000 resonance units (RU) of RBBp4 were immobilised by amine coupling to the carboxymethylated dextran matrix of a Series S CM5 chip (Biacore, GE Healthcare). […] The association time and flow rate were set at 60 s and 30 μl/min respectively.

[2] = biological target: T1, retinoblastoma binding protein 4 (RBBp4); assay: fluorescence polarization competition: peptide titrated into RBBp4 + C-terminal FITC-labelled WT SALL4 peptide
[3] = biological target: T1, retinoblastoma binding protein 4 (RBBp4); assay: isothermal titration calorimetry, peptide titrated into RBBp4, 25 °C; isothermal titration calorimetry
Procedure: (§1) ITC was carried out with an Auto-iTC200 instrument from Microcal Inc. at 25° C. […] of RBBp4 in 50 mM Tris and 100 mM NaCl at pH 7.4 was loaded into the ITC cell. Sal14 peptide at […] was auto-loaded into the syringe. The titration was carried out with 18 injections of 2.4 μl, performed over a period of 30 min with stirring at 1000 rpm. The ITC data was analysed using Origin software from Microcal.

[4] = biological target: T1, retinoblastoma binding protein 4 (RBBp4); assay: isothermal titration calorimetry, peptide titrated into RBBp4, 1:1 binding model
Procedure: as §1

[5] = biological target: T1, retinoblastoma binding protein 4 (RBBp4); assay: cell-based or functional assay
[6] = biological target: T1, retinoblastoma binding protein 4 (RBBp4); assay: fluorescence polarization competition; peptide titrated into RBBp4 with C-labelled FITC-SALL4 WT peptide as the displaced tracer
Procedure: (§2) FIGS. 3A-3E. […] The difference in the binding free energy (ΔΔGbind) of the alanine mutants (ΔGₘᵤₜₐₙₜ, Ala7 was mutated to glycine) and wild type (ΔG_{wild type}) was calculated (ΔΔGbind=ΔGₘᵤₜₐₙₜ−ΔG_{wild type}). ΔΔGbind was tabulated (left) and plotted in a bar chart (right). […] Mutated residues are highlighted in red. The IC₅₀ of each peptide, including WT, was determined by Fluorescence Polarization (FP). […] Polarization was measured in mP. […] Pep-1 carrier was added to the peptide to facilitate cellular penetration of the peptides.
(§3) In silico analysis using computational alanine scanning was performed on the key residues identified by the crystal contacts.

[7] = biological target: T1, retinoblastoma binding protein 4 (RBBp4); assay: as above; remark: listed apart in the source
Procedure: as §2, §3

[8] = biological target: T1, retinoblastoma binding protein 4 (RBBp4); assay: fluorescence polarization competition: peptide titrated into RBBp4 + C-terminal FITC-labelled WT SALL4 peptide; remark: listed apart in the source
Procedure: (§4) Reactions were incubated at room temperature before the plate was read with an Envision instrument (Perkin Elmer). IC₅₀ values of peptides were determined using Prism (GraphPad).

[9] = biological target: T1, retinoblastoma binding protein 4 (RBBp4); assay: fluorescence polarization competition, ratio of IC50s
Procedure: These three substitutions (Gln4Phe, Pro7Phe, and His9Trp) were incorporated into peptide 46 ([…], named FFW hereof, (SEQ ID NO: 14)).
as §4

T1 sequence (Q09028 whole entry, the tested form may be a part): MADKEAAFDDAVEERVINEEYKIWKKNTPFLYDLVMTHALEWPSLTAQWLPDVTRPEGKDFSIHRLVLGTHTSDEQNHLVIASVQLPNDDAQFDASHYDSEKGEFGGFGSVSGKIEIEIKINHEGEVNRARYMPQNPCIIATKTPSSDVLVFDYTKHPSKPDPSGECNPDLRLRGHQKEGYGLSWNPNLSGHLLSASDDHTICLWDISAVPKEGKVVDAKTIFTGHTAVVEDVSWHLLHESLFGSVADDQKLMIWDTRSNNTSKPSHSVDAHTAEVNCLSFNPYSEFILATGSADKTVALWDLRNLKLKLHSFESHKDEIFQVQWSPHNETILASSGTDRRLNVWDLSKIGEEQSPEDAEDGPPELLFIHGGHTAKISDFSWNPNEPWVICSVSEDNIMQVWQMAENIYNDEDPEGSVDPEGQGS
T1 sequence (Q09028 whole entry): as the sequence (Q09028 whole entry, the tested form may be a part) above

IC50 [8] [µM]	Binder	other results
–	MSRRKQAKPQHI (As used in ITC, SPR, crystal structure and the alanine-scan FP assay; also called SALL4 WT; 12-aa SALL4 peptide) [WT SALL4 peptide (1-12 aa), MSRRKQAKPQHI]	Kd [1]: 1.5 µM; koff [1]: 0.026 s⁻¹; kon [1]: 16800 M⁻¹ s⁻¹; IC50 [2]: 1 µM; Kd [3]: 1.04 µM; Ka [4]: 960000 M⁻¹; PTEN expression by Q-PCR in SNU398 cells treated with peptide [5]: 3 fold
–	MSRRKAAKPQHI [SALL4 (1-12) peptide bearing the Q6A mutation]	IC50 [2]: 1.3 µM
–	MSRRAQAKPQHI [SALL4 (1-12) peptide bearing the K5A mutation]	IC50 [2]: 7 µM
–	MSRRAAAKPQHI (One of the double mutants with the loss of only one key residue (group m57); also called SALL4 (1-12) peptide, double mutant K5A-Q6A) [mut K5A,Q6A]	IC50 [6]: 4.4 µM; IC50 [7]: 4.4 µM
–	MSRAKQAKPQHI [SALL4 (1-12) peptide bearing the R4A mutation]	IC50 [2]: 8.9 µM
–	MSRAKAAKPQHI (One of the double mutants with the loss of only one key residue (group m57); also called SALL4 (1-12) peptide, double mutant R4A-Q6A) [mut R4A,Q6A]	IC50 [6]: 4.7 µM; IC50 [7]: 4.7 µM
–	MSARKAAKPQHI (One of the double mutants with the loss of only one key residue (group m57); also called SALL4 (1-12) peptide, double mutant R3A-Q6A) [mut R3A,Q6A]	IC50 [6]: 4.1 µM; IC50 [7]: 4.1 µM
–	MSARKQAKPQHI [SALL4 (1-12) peptide bearing the R3A mutation]	IC50 [6]: 4.5 µM; IC50 [2]: 3.8 µM; IC50 [7]: 4.5 µM
1.91	Ac-MSRRKQAKP-NH2 (C-terminal truncation of WT) [Peptide 4 (Ac-MSRRKQAKP-NH2)]	IC50 [2]: 1.96 µM
1.29	Ac-MSRRKQAKPQH-NH2 (C-terminal truncation of WT) [Peptide 2 (Ac-MSRRKQAKPQH-NH2)]	IC50 [2]: 1.4 µM
1.04	Ac-MSRRKQAKPQHI-NH2 (also called WT; original 12-residue WT peptide) [Peptide 1 (Ac-MSRRKQAKPQHI-NH2)]	IC50 [2]: 1.3 µM
0.023	Ac-RRKFAKFQWI-NH2 (Gln4Phe, Pro7Phe and His9Trp of peptide 6; also called FFW peptide) [Peptide 46 (Ac-RRKFAKFQWI-NH2), FFW]	fold increase in affinity compared with the 12-residue WT peptide [9]: > 56 fold
6.6	Ac-RRKQAK[code p]QHI-NH2 (not fully specified; printed as Ac-RRKQAKpQHI-NH2, P7 mutation of peptide 6; position 7 printed in lower case) [Peptide 31 (Ac-RRKQAKpQHI-NH2)]	–
0.8	Ac-MSRRKQAKPQ-NH2 (C-terminal truncation of WT) [Peptide 3 (Ac-MSRRKQAKPQ-NH2)]	–
0.6	Ac-SRRKQAKPQHI-NH2 (N-terminal truncation of WT) [Peptide 5 (Ac-SRRKQAKPQHI-NH2)]	–
0.36	Ac-RRKQAKPQHI-NH2 [Peptide 6 (printed Ac-…-NH2; WT without Met1 and Ser2)]	–
–	Ac-RRKFAKPQHI-NH2 [Peptide 24 (Ac-RRKFAKPQHI-NH2)]	IC50 [2]: 0.05 µM; fold enhancement in binding affinity over peptide 6 [9]: 7 fold
2.3	Ac-RKKQAKPQHI-NH2 (R2 mutation of peptide 6) [Peptide 18 (Ac-RKKQAKPQHI-NH2)]	–
0.19	Ac-RRKAAKPQHI-NH2 [Peptide 11 (Ac-RRKAAKPQHI-NH2)]	–
0.48	Ac-RRKQAKPQVI-NH2 [Peptide 42 (Ac-RRKQAKPQVI-NH2)]	–
3.49	Ac-RRKEAKPQHI-NH2 (Q4 mutation of peptide 6) [Peptide 20 (Ac-RRKEAKPQHI-NH2)]	–
0.34	Ac-RRKQAKPQFI-NH2 [Peptide 39 (Ac-RRKQAKPQFI-NH2)]	–
0.91	Ac-RRKQAVPQHI-NH2 [Peptide 27 (Ac-RRKQAVPQHI-NH2)]	–
0.59	Ac-RRKQAKPQHL-NH2 (To be rechecked) [Peptide 44 (printed Ac-RRKCIAKPOHL-NH2)]	–

IC50 [8] [µM]	Binder	other results
0.92	Ac-RRKNAKPQHI-NH2 (Q4 mutation of peptide 6) [Peptide 21 (Ac-RRKNAKPQHI-NH2)]	–
5.8	Ac-RRKQAKVQHI-NH2 (P7 mutation of peptide 6) [Peptide 32 (Ac-RRKQAKVQHI-NH2)]	–
4.4	Ac-RRKQAKLQHI-NH2 (P7 mutation of peptide 6) [Peptide 33 (Ac-RRKQAKLQHI-NH2)]	–
2.85	Ac-RRKQAKPQYI-NH2 [Peptide 40 (Ac-RRKQAKPQYI-NH2)]	–
0.12	Ac-RRKQAKPQWI-NH2 [Peptide 41 (Ac-RRKQAKPQWI-NH2)]	fold improvement of binding affinity compared with peptide 6 [9]: 3 fold
0.38	Ac-RRKQKKPQHI-NH2 [Peptide 25 (Ac-RRKQKKPQHI-NH2)]	–
0.35	Ac-RRKQAKPVHI-NH2 [Peptide 37 (Ac-RRKQAKPVHI-NH2)]	–
0.79	Ac-RRKQAKPNHI-NH2 [Peptide 36 (Ac-RRKQAKPNHI-NH2)]	–
0.46	Ac-RRKQAKPQHA-NH2 [Peptide 16 (Ac-RRKQAKPQHA-NH2)]	–
0.12	Ac-RRKQAKPAHI-NH2 [Peptide 14 (Ac-RRKQAKPAHI-NH2)]	–
0.17	Ac-RRKQAKFQHI-NH2 [Peptide 34 (Ac-RRKQAKFQHI-NH2)]	–
0.41	Ac-RRKVAKPQHI-NH2 (Q4 mutation of peptide 6) [Peptide 22 (Ac-RRKVAKPQHI-NH2)]	–
0.31	Ac-RRKQALPQHI-NH2 [Peptide 28 (Ac-RRKQALPQHI-NH2)]	–
0.57	Ac-RRKQAKPEHI-NH2 [Peptide 35 (Ac-RRKQAKPEHI-NH2)]	–
0.46	Ac-RRKQRKPQHI-NH2 [Peptide 26 (Ac-RRKQRKPQHI-NH2)]	–
0.16	Ac-RRKQAAPQHI-NH2 [Peptide 12 (Ac-RRKQAAPQHI-NH2)]	–
0.73	Ac-RRKQAKPQAI-NH2 [Peptide 15 (Ac-RRKQAKPQAI-NH2)]	–
0.33	Ac-RRKQARPQHI-NH2 [Peptide 30 (Ac-RRKQARPQHI-NH2)]	–
0.27	Ac-RRKQAKAQHI-NH2 (Ala scan of peptide 6) [Peptide 13 (Ac-RRKQAKAQHI-NH2)]	–
0.53	Ac-RRKQAFPQHI-NH2 [Peptide 29 (Ac-RRKQAFPQHI-NH2)]	–
0.46	Ac-RRKQAKPLHI-NH2 [Peptide 38 (Ac-RRKQAKPLHI-NH2)]	–
0.27	Ac-RRKLAKPQHI-NH2 (Q4 mutation of peptide 6) [Peptide 23 (Ac-RRKLAKPQHI-NH2)]	–
3.8	Ac-KRKQAKPQHI-NH2 (R1 mutation of peptide 6) [Peptide 17 (Ac-KRKQAKPQHI-NH2)]	–
0.63	Ac-RRRQAKPQHI-NH2 (K3 mutation of peptide 6) [Peptide 19 (Ac-RRRQAKPQHI-NH2)]	–
